# Assay results as given in patent publication US10401365B2, “Inhibition of chemokine CCL7 or receptor CCR3 of same for the treatment and diagnosis of prostate cancer” (Universite Paul Sabatier (Toulouse III), priority 2014, dated 2019).
# Several values for one entry are separate records, joined by “and”; a condition that tells them apart may be missing. Equal entries are not always repeated.
# Columns and labels:
# PC-3 cells [1] = assay: Boyden chamber migration of PC-3 cells against conditioned medium from mature adipocytes (CM-Ad, 3T3-F442A); assay type: cell-based, human
# Description: The monoclonal antibodies targeted against CCR1 (D063-3 clone 141-2) and CCR3 (D083-3, clone 444-11) are obtained from MBL International (Worburn, Mass., USA). The anti-CCR2 (clone E68) and anti-CCR3 (clone Y31) monoclonal antibodies are obtained from Abcam (Cambridge, Mass., USA). The monoclonal antibodies against CXCR2 (clone 48311), CXCR4 (clone 44716) and CCR1 (clone 53504) are obtained from R&D Systems (Minneapolis, Minn., USA).
# The inhibitor targeting the receptor CXCR4, AMD3100 (Rosenkilde, Gerlach et al. 2004) is obtained from Sigman Aldrich and is used at final concentrations of 1, 10, 50 and 100 nM. The inhibitor targeting the receptors CXCR1 and CXCR2, SB225002 (White, Lee et al. 1998)) is obtained from Tocris (Bristol, United Kingdom) and is used at final concentrations of 1, 10 and 100 nm. […]
# In order to evaluate the ability of tumor cells to migrate according to the culture medium, Boyden chamber migration tests were conducted using 8 μm porosity Greiner bio-one inserts. […] The migration of the tumor cells is evaluated after 12 hrs of migration at 37° C. and 5% CO2 by 1% toluidine blue staining supplemented with 0.1M borax (Sigma, St Louis, Mo., USA) and quantification of the absorbance (measured at 570 nm).
# PC-3 cells [2] = assay: Migration of PC-3 cells against serum-free medium with recombinant CCL7; assay type: cell-based, human; conditions: dose-dependent, 1-100 ng/ml
# Procedure: (§1) In order to evaluate the ability of tumor cells to migrate according to the culture medium, Boyden chamber migration tests were conducted using 8 μm porosity Greiner bio-one inserts. In the lower compartment either culture medium with or without serum, or conditioned medium from F442A adipocytes (CM-Ad), human periprostatic adipose tissue (CM-PPAT), mouse perigonadal adipose tissue (CM-PGAT), adipocytes or vascular fraction cells (SVF) isolated from PPAT or PGAT is introduced. These conditioned media may be pretreated for 30 minutes by adding antibodies blocking the chemokine CCL7. Experiments with the recombinant chemokine CCL7 were also conducted, in this case the chemokine is added to serum-free culture medium to verify the chemoattractant potential thereof on a cell line. In the upper chamber 1×10^5 cells, previously depleted for 6 hours of serum are deposited in serum-free culture medium. […] The migration of the tumor cells is evaluated after 12 hrs of migration at 37° C. and 5% CO2 by 1% toluidine blue staining supplemented with 0.1M borax (Sigma, St Louis, Mo., USA) and quantification of the absorbance (measured at 570 nm).
# Du-145 cells = assay: Migration of Du-145 cells against serum-free medium with recombinant CCL7; assay type: cell-based, human; conditions: dose-dependent, 1-100 ng/ml
# Procedure: as §1
# TRAMP-C1P3 cells [3] = assay: Migration of TRAMP-C1P3 cells against serum-free medium with recombinant CCL7; assay type: cell-based, mouse; conditions: 1-100 ng/ml
# Procedure: as §1
# RM1-BM cells = assay: Migration of RM1-BM cells against serum-free medium with recombinant CCL7; assay type: cell-based, mouse; conditions: 100 ng/mL; p<0.01
# Procedure: as §1
# receptor CCR3 = assay: Expression of receptor CCR3 in shRNA-transfected TRAMP-C1P3 cells; assay type: cell-based, mouse; conditions: stable shRNA, lentiviral
# Procedure: The tumor cells (from prostate, breast, colon, pancreas, or melanoma) were washed three times in FACS buffer (PBS supplemented with 0.5% BSA and 2% FCS) and fixed with a 3.7% paraformaldehyde solution for 20 min at 4° C. The tumor cells were suspended with anti-CXCR4 (10 μg/ml), anti-CXCR1 (10 μg/ml), anti-CXCR2 (1:25), anti-CCR1 (10 μg/ml), anti-CCR2 (20 μg/ml), anti-CCR3 (10 μg/ml) antibodies or isotypical mouse anti-IgG control antibodies at 4° C. for 2 hours. The tumor cells were incubated with a mouse anti-IgG secondary antibody (dilution to 1:200) coupled with Alexa Fluor 488 or coupled with Cyanine 5 (for cells expressing GFP) for 30 minutes at 4° C. Finally, 2×10^4 cells were analyzed by flow cytometry using a FACScan and FACScalibur flow cytometer (analysis on CellQuest™ software (BD-PharMingen)).
# In order to inhibit the expression of the receptor CCR3 (NM_009914) in a stable manner in TRAMP-C1P3 cells, an shRNA approach was used enabling stable negative regulation even after several months of culture. The interfering sequences were generated using the Dharmacon “Center siDesign” tool. The sequences of the sense strands of shRNA generated are as follows:
# (§2) The nucleotides targeting the sequence of CCR3 are shown in upper case, whereas the sequence responsible for the hairpin structure and the sequences required for directional cloning are represented in lower case letter. The lentiviral vector LVTHM® is a lentiviral vector (LV) coding for the shRNA CCR3 sequences under the control of the H1 promoter also expressing GFP. The TRAMP-C1P3 cells were then transfected in the presence of m4, m5 or m6-LVTHM for 24 hours at a multiplicity of infection (MOI) of 1:10. The transfected population is selected by GFP expression (cell sorting). These cells were then analyzed by flow cytometry to validate the loss of expression of the CCR3 gene. The control used is the pLVTHM plasmid which expresses an ineffective shRNA sequence.
# TRAMP-C1P3 cells [4] = assay: Migration of shRNA-transfected TRAMP-C1P3 lines against CM-Ad or adipose tissue conditioned medium; assay type: cell-based, mouse
# Procedure: In order to evaluate the ability of tumor cells to migrate according to the culture medium, Boyden chamber migration tests were conducted using 8 μm porosity Greiner bio-one inserts. In the lower compartment either culture medium with or without serum, or conditioned medium from F442A adipocytes (CM-Ad), human periprostatic adipose tissue (CM-PPAT), mouse perigonadal adipose tissue (CM-PGAT), adipocytes or vascular fraction cells (SVF) isolated from PPAT or PGAT is introduced. These conditioned media may be pretreated for 30 minutes by adding antibodies blocking the chemokine CCL7. Experiments with the recombinant chemokine CCL7 were also conducted, in this case the chemokine is added to serum-free culture medium to verify the chemoattractant potential thereof on a cell line. In the upper chamber 1×10^5 cells, previously depleted for 6 hours of serum are deposited in serum-free culture medium. For the migration tests in the presence of blocking antibodies specific for CCR1 or CCR3 or inhibitors of CCR1/CCR3, CCR2, CXCR1/CXCR2 and CXCR4, the tumor cells are previously incubated in a tube with the blocking antibody or the inhibitor for 30 min at 37° C. The migration of the tumor cells is evaluated after 12 hrs of migration at 37° C. and 5% CO2 by 1% toluidine blue staining supplemented with 0.1M borax (Sigma, St Louis, Mo., USA) and quantification of the absorbance (measured at 570 nm).
# as §2
# TRAMP-C1P3 cells [5] = assay: Intraprostatic injection of TRAMP-C1P3 cells in C57BL/6 mice, tumor growth; assay type: in vivo; conditions: for tumor size: 2×10^6 cells intraprostatic, n=11, p<0.001 vs shCtrl
# Procedure: Male C57BL/6 mice aged 18 weeks on a normal or high-fat diet were anesthetized with isoflurane. A transverse incision was made at the lower part of the abdomen. The muscles of the abdominal wall were incised, and the bladder and the seminal vesicles were released so as to expose the dorsal lobe of the prostate. A suspension of 2×10^6 cells (in 30 μl of PBS) was then carefully injected under the prostate capsule by means of a gauge 30 needle. The incision was closed using 4-0 suture and clips. The animals were then placed in cages and regular monitoring is conducted in order to monitor macroscopically the general condition of the mouse. After 20 days of tumor establishment, the mice are sacrificed, the primary tumor is thus removed, measured and weighed, and an acquisition in white light and GFP is carried out. The tumors are then placed in a paraformaldehyde solution (4%) and included in paraffin.
molecule,measurement,setting,value
c1cc(CN2CCCNCCNCCCNCC2)ccc1CN1CCCNCCNCCCNCC1 [AMD3100],reduction of migration of PC-3 cells against CM-Ad,"PC-3 cells [1]; 100 nM (maximum dose, only dose effective), p<0.05",approximately 20%
O=C(Nc1ccc([N+](=O)[O-])cc1O)Nc1ccccc1Br [SB225002],inhibition of migration of PC-3 cells induced by CM-Ad,"PC-3 cells [1]; 50 nM, p<0.01",approximately 30%
"recombinant chemokine CCL7: human recombinant chemokine CCL7, ligand of CCR3, added to serum-free medium as chemoattractant",dose from which induced migration of PC-3 cells is significant compared to medium alone,PC-3 cells [2],50 ng/mL
same,dose from which induced migration of Du-145 cells is significant compared to medium alone,Du-145 cells,50 ng/mL
same,dose from which dose-dependent chemotaxis of TRAMP-C1P3 cells is induced,TRAMP-C1P3 cells [3],50 ng/mL
same,induction of migration of RM1-BM cells with respect to serum-free medium,RM1-BM cells,significant migration
"m4CCR3: shRNA targeting the gene CCR3, SEQ ID NO: 1 (nucleic acid) CGCGTCCCCAGACCACACCCTATGAATATTCAAGAGATATTCATAGGGTGTGGTCTTTTTTGGAAAT",expression of receptor CCR3 in TRAMP-C1P3 line with respect to control line (shCtrl),receptor CCR3,significant reduction
same,migration of shCCR3 TRAMP-C1P3 lines against CM-Ad with respect to control line,TRAMP-C1P3 cells [4],significant reduction
"m5CCR3: shRNA targeting the gene CCR3, SEQ ID NO: 2 (nucleic acid) CGCGTCCCCGACCACACCCTATGAATATTTCAAGAGAATATTCATAGGGTGTGGTCTTTTTGGAAAT",expression of receptor CCR3 in TRAMP-C1P3 line with respect to control line (shCtrl),receptor CCR3,significant reduction
same,migration of shCCR3 TRAMP-C1P3 lines against CM-Ad with respect to control line,TRAMP-C1P3 cells [4],significant reduction
"m6CCR3: shRNA targeting the gene CCR3, SEQ ID NO: 3 (nucleic acid) CGCCGTCCCCGGTGAGAGGTTCCGGAAACTTCAAGAGAGTTTCCGGAACCTCTCACCTTTTTGGAAAT",expression of receptor CCR3 in TRAMP-C1P3 line with respect to control line (shCtrl),receptor CCR3,significant reduction
same,migration of shCCR3 TRAMP-C1P3 lines against CM-Ad with respect to control line,TRAMP-C1P3 cells [4],significant reduction
same,migration of shCCR3 TRAMP-C1P3 line against conditioned medium of ND AT-mu-PG with respect to control line,TRAMP-C1P3 cells [4]; ND AT-mu-PG,reduction in the migration is also detected
same,increase in migration in presence of HFD AT-mu-PG,"TRAMP-C1P3 cells [4]; m6CCR3 line, unlike shCtrl line",not significant
same,"invasion of the dorsal lobe of the prostate (histology, HE) compared with C1P3 Ctrl line",TRAMP-C1P3 cells [5]; histological sections,much less extensive invasion
same,tumor size,TRAMP-C1P3 cells [5]; mice on normal-fat diet,220±30 mm3
same,tumor size,TRAMP-C1P3 cells [5]; obese mice on high-fat diet,210±25 mm3 and 200±50 mm3
